According to patent US20140072613A1, “Compositions and Methods for Treating Cutaneous Scarring” (priority 2012, published 2014):

Tests used:
Test in all cases: biochemical
Assay type in all cases: biochemical
[1] = target: 266 human kinases (Homo sapiens, UniProt P10721); conditions: cKit(h); 100 μM
In short: (§1)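 Radiometric filter-binding format: a positively charged substrate takes up radiolabelled phosphate from ATP unless the kinase is inhibited, then is captured on a negatively charged filter membrane. Counts from scintillation are expressed relative to a 100% activity control.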

[2] = target: 266 human kinases (Homo sapiens, UniProt Q9UPE1); conditions: MSSK1(h); 100 μM
Sequence of 266 human kinases (Homo sapiens, UniProt Q9UPE1) (Q9UPE1 whole entry): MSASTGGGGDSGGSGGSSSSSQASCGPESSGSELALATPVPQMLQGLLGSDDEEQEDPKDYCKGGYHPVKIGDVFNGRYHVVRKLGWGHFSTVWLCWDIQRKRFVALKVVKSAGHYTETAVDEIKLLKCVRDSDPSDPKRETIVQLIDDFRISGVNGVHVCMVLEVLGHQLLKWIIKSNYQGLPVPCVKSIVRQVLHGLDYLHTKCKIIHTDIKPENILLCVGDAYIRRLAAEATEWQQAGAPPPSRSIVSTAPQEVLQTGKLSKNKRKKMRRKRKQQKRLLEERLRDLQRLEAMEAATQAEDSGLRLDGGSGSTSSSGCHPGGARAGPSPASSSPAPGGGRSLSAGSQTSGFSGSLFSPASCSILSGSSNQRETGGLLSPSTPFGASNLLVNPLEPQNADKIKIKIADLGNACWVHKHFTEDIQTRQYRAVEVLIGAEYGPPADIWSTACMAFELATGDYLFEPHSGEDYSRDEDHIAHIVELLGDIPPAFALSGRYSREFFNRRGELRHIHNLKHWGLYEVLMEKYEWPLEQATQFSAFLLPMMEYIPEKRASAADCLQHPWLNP
In short: as §1

[3] = target: 266 human kinases (Homo sapiens, UniProt Q9Y6E0); conditions: MST3(h); 100 μM
Sequence of 266 human kinases (Homo sapiens, UniProt Q9Y6E0) (Q9Y6E0 whole entry): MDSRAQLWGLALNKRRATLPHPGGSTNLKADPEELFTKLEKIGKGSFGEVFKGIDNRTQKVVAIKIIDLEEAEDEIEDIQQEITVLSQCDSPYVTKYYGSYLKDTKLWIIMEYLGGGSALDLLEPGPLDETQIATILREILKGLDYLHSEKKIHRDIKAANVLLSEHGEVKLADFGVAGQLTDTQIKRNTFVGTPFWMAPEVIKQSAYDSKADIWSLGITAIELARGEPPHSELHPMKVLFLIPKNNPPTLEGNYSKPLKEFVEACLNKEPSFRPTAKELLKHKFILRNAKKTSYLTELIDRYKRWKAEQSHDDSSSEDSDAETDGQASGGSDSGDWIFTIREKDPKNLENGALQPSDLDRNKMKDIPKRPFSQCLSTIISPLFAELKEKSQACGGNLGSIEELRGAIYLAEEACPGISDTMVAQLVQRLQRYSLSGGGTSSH
In short: as §1

[4] = target: 266 human kinases (Homo sapiens, UniProt P16234); conditions: PDGFRα(h); 100 μM
Sequence of 266 human kinases (Homo sapiens, UniProt P16234) (P16234 24-1089): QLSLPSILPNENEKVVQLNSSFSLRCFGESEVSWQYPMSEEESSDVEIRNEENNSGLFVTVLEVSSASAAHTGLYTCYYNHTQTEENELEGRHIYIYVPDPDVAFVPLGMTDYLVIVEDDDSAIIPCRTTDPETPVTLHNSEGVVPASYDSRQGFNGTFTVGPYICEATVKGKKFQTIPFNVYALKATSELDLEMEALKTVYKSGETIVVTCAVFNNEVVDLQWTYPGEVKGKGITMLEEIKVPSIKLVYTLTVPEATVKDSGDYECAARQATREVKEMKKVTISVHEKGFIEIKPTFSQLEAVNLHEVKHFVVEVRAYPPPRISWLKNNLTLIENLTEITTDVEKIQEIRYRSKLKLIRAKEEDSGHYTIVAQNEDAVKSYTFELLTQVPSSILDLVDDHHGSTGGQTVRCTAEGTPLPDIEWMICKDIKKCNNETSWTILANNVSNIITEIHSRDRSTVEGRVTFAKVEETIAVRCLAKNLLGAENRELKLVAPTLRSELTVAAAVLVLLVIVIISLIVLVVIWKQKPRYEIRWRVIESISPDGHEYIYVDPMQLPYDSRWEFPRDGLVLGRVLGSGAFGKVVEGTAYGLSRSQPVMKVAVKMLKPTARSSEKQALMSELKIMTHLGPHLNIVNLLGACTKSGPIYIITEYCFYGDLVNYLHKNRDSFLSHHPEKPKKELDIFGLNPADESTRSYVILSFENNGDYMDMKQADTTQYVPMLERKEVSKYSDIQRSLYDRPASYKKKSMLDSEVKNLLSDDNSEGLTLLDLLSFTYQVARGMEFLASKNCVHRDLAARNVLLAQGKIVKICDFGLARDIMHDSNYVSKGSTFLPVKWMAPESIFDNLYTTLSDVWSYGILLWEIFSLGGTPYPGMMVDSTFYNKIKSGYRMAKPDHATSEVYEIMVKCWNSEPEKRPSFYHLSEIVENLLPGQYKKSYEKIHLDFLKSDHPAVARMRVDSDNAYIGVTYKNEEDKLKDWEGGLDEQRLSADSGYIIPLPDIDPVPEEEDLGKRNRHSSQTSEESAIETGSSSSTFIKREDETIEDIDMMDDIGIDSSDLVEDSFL
In short: as §1

[5] = target: 266 human kinases (Homo sapiens, UniProt Q13131); conditions: AMPKα1(h); 100 μM
Sequence of 266 human kinases (Homo sapiens, UniProt Q13131) (Q13131 whole entry): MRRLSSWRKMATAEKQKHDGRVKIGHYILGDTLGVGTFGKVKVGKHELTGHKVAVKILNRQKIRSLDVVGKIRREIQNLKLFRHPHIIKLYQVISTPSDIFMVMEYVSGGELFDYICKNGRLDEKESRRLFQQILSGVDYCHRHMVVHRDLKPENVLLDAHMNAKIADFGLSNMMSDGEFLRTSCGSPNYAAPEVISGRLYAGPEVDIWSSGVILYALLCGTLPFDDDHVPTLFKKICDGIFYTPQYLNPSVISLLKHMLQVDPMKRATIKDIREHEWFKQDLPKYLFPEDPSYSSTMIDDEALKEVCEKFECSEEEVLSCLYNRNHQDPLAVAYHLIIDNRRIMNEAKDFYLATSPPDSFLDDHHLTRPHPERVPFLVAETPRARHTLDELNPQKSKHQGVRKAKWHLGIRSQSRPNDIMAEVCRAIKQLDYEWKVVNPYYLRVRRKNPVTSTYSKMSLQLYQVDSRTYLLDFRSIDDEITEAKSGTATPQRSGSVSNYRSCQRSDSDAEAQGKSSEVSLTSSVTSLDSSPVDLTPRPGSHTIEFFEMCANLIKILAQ
In short: as §1

[6] = target: 266 human kinases (Homo sapiens, UniProt P50613); conditions: CDK7/cyclinH/MAT1(h); 100 μM
Sequence of 266 human kinases (Homo sapiens, UniProt P50613) (P50613 whole entry): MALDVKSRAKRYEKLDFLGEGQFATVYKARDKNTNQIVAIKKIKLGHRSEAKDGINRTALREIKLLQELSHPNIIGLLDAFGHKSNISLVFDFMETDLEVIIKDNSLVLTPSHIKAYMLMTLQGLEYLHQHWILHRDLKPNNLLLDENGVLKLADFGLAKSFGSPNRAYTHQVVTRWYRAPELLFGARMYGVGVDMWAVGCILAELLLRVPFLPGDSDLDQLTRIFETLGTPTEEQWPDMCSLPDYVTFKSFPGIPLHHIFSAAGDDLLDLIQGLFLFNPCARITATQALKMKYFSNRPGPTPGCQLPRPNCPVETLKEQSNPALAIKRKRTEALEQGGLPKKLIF
In short: as §1

[7] = target: T1, 266 human kinases (Homo sapiens, UniProt P29323); conditions: EphB2(h); 100 μM
T1 sequence (P29323 19-1055): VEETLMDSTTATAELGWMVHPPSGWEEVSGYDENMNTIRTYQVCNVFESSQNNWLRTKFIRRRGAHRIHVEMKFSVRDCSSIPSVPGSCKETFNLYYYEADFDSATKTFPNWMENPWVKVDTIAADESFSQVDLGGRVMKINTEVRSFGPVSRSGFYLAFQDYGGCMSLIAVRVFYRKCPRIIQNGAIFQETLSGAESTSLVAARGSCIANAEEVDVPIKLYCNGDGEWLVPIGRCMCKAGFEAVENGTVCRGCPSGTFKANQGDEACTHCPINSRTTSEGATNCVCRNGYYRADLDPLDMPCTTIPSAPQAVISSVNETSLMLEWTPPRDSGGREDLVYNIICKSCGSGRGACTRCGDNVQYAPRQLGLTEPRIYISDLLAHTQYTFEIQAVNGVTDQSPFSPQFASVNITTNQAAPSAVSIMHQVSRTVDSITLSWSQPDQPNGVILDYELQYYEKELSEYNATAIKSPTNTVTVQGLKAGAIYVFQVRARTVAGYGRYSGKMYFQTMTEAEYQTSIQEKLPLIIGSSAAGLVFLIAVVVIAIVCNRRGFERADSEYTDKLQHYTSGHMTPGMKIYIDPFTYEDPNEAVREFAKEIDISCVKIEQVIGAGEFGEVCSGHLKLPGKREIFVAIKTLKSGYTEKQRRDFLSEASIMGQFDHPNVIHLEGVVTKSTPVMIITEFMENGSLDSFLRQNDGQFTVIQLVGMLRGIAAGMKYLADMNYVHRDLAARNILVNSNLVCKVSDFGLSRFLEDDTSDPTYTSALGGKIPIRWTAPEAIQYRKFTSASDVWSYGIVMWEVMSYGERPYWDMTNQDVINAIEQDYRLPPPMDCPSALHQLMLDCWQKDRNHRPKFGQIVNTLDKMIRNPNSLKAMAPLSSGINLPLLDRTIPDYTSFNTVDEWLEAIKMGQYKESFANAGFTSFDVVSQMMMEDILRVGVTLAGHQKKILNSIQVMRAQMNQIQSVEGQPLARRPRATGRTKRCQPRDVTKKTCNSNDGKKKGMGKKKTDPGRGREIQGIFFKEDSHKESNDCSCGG
In short: as §1

[8] = target: 266 human kinases (Homo sapiens, UniProt Q16539, T106M); conditions: SAPK2a(T106M)(h); 100 μM
Sequence of 266 human kinases (Homo sapiens, UniProt Q16539, T106M) (Q16539 whole entry T106M): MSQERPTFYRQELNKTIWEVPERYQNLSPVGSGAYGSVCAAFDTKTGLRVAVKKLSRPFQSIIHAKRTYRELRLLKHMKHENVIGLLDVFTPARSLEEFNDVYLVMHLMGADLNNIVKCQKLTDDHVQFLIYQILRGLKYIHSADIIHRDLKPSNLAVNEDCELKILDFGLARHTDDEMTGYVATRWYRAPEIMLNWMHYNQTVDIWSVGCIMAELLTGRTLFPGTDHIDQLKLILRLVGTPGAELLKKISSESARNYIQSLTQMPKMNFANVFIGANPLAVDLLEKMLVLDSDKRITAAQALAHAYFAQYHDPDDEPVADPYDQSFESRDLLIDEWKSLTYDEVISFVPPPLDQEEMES
In short: as §1

[9] = target: 266 human kinases (Homo sapiens, UniProt Q9UIK4); conditions: DAPK2(h); 100 μM
Sequence of 266 human kinases (Homo sapiens, UniProt Q9UIK4) (Q9UIK4 whole entry): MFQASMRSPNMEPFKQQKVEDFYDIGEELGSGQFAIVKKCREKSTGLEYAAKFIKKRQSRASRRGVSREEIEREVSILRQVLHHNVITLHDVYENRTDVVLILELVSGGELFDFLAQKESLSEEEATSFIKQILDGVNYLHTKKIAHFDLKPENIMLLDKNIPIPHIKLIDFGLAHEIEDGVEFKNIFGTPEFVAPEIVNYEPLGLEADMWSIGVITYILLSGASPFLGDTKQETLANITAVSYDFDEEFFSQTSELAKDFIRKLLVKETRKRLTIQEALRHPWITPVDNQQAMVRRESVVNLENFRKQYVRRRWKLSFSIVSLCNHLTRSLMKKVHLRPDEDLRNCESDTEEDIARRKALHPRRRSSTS
In short: as §1

[10] = target: 266 human kinases (Homo sapiens, UniProt P53779); conditions: JNK3(h); 100 μM
In short: as §1

[11] = target: 266 human kinases (Homo sapiens, UniProt P51955); conditions: NEK2(h); 100 μM
Sequence of 266 human kinases (Homo sapiens, UniProt P51955) (P51955 whole entry): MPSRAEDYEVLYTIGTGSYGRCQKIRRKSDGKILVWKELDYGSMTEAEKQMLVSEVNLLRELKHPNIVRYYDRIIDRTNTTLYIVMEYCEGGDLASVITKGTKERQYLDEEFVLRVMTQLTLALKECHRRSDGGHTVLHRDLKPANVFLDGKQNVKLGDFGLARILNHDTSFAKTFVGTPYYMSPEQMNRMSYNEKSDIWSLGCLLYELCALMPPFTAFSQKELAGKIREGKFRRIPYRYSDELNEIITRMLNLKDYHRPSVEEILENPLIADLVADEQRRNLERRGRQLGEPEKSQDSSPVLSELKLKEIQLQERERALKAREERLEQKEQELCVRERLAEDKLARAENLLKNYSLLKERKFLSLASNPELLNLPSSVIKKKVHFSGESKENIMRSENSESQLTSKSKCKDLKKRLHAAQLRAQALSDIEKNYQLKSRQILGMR
In short: as §1

[12] = target: 266 human kinases (Homo sapiens, UniProt P08581, D1228N); conditions: Met(D1246N)(h); 100 μM
In short: as §1

[13] = target: 266 human kinases (Homo sapiens, UniProt P52564); conditions: MKK6(h); 100 μM
Sequence of 266 human kinases (Homo sapiens, UniProt P52564) (P52564 whole entry): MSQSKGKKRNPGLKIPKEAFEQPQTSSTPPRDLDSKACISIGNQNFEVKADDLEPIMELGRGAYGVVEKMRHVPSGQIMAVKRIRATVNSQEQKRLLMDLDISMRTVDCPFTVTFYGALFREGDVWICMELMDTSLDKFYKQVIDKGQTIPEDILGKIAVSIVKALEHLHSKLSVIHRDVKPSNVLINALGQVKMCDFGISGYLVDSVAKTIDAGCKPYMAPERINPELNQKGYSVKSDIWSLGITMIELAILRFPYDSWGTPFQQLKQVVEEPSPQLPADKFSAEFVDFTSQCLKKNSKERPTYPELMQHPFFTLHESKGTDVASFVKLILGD
In short: as §1

[14] = target: 266 human kinases (Homo sapiens, UniProt Q15759); conditions: SAPK2b(h); 100 μM
In short: as §1

[15] = target: 266 human kinases (Homo sapiens, UniProt P17948); conditions: Flt1(h); 100 μM
In short: as §1

[16] = target: 266 human kinases (Homo sapiens, UniProt Q9P1W9); conditions: Pim-2(h); 100 μM
Sequence of 266 human kinases (Homo sapiens, UniProt Q9P1W9) (Q9P1W9 whole entry): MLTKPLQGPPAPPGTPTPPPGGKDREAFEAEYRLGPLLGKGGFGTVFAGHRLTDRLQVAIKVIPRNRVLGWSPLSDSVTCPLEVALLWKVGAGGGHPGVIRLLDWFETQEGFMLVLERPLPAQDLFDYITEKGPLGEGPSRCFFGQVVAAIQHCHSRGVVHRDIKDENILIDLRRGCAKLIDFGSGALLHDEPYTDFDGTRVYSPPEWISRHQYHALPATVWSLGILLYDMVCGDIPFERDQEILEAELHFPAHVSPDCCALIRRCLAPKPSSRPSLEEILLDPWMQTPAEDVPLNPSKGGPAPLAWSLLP
In short: as §1

[17] = target: 266 human kinases (Homo sapiens, UniProt Q13882); conditions: BRK(h); 100 μM
In short: as §1

[18] = target: 266 human kinases (Homo sapiens, UniProt Q9BYP7); conditions: WNK3(h); 100 μM
In short: as §1

HRRIKAWLKKIKALARQLGVAA (mammal) [MMI-0500]
% activity [1]: 45%
% activity [2]: 22%
% activity [3]: 4%
% activity [4]: 40%
% activity [5]: 35%
% activity [6]: 15%
% activity [7]: 70%
% activity [8]: 32%
% activity [9]: 3%
% activity [10]: 171%
% activity [11]: 0%
% activity [12]: 90%
% activity [13]: 18%
% activity [14]: 42%
% activity [15]: 27%
% activity [16]: 46%
% activity [17]: 41%
% activity [18]: 9%

YARAAARQARAKALNRQLGVA (mammal) [MMI-0200]
% activity [1]: 110%
% activity [2]: 100%
% activity [3]: 95%
% activity [4]: 108%
% activity [5]: 108%
% activity [6]: 67%
% activity [7]: 128%
% activity [8]: 100%
% activity [9]: 92%
% activity [10]: 90%
% activity [11]: 97%
% activity [12]: 149%
% activity [13]: 98%
% activity [14]: 95%
% activity [15]: 96%
% activity [16]: 74%
% activity [17]: 127%
% activity [18]: 97%
